Assay results reported in patent US20230321261A1 (published 2023).

B1: IgG1-AXL-726 (antibody, V domains shown)
VH: QVQLQQWGAGLLKPSETLSLTCAIDGGSFSGYYWSWIRQPPGKGLEWIGEISHSGRTNYNPSLKSRVTISIDTSKNQFSLKLSSVAAADTAVYYCARFITMIRGAIITHFDYWGQGALVTVSS
VL: DIQMTQSPSSLSASVGDRVTITCRASQGISSWLAWYQQKPEKAPKSLIYAASSLQSGVPSRFSGSGSGTDFTLTISSLQPEDFATYYCQQYHSYPYTFGQGTKLEIK
notes: expressed as IgG1,κ
B2: IgG1-AXL-137 (antibody, V domains shown)
VH: QVQLVQSGAEVKKPGSSVKVSCKASGGTFSRYAISWVRQAPGQGLEWMGRIIPIVGIANYAQKFQGRVTLTADKSTSTAYMELSSLRSEDTAVYYCAREAGYSSSWYAEYFQHWGQGTLVTVSS
VL: not shown
notes: expressed as IgG1,κ
B3: IgG1-AXL-061 (antibody, V domains shown)
VH: QVQLVQSGAEVKKPGASVKVSCKASGYAFTGYGISWVRQAPGQGLEWIGWISAYNGNTNYVQNLQDRVTMTTDTSTSTAYMELRSLRSDDTAVYYCARDHISMLRGIIIRNYWGQGTLVTVSS
VL: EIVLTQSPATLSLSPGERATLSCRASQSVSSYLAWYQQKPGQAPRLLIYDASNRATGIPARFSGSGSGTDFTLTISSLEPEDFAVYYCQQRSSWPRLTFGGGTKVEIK
notes: expressed as IgG1,κ
B4: IgG1-AXL-613 (antibody, V domains shown)
VH: QVQLVQSGAEVKKPGSSVKVSCKASGGTFSSYAINWMRQAPGQGLEWMGRIIPIFGIVNYAQKFQGRVTLTADKSTSTAYMELSSLRSEDTAVYYCARRGNYYGSGSPDVFDIWGQGTMVTVSS
VL: not shown
notes: expressed as IgG1,κ

Assays:
[1] = molecular target: T1, Homo sapiens AXL - Mus musculus FN2 domain (p33-AXL-mFN2) (human (Homo sapiens) AXL with mouse …, UniProt P30530 26-894); assay: flow cytometry, transfected HEK293F cells
T1 construct: also called hsAXL-mmFN2
T1 chain: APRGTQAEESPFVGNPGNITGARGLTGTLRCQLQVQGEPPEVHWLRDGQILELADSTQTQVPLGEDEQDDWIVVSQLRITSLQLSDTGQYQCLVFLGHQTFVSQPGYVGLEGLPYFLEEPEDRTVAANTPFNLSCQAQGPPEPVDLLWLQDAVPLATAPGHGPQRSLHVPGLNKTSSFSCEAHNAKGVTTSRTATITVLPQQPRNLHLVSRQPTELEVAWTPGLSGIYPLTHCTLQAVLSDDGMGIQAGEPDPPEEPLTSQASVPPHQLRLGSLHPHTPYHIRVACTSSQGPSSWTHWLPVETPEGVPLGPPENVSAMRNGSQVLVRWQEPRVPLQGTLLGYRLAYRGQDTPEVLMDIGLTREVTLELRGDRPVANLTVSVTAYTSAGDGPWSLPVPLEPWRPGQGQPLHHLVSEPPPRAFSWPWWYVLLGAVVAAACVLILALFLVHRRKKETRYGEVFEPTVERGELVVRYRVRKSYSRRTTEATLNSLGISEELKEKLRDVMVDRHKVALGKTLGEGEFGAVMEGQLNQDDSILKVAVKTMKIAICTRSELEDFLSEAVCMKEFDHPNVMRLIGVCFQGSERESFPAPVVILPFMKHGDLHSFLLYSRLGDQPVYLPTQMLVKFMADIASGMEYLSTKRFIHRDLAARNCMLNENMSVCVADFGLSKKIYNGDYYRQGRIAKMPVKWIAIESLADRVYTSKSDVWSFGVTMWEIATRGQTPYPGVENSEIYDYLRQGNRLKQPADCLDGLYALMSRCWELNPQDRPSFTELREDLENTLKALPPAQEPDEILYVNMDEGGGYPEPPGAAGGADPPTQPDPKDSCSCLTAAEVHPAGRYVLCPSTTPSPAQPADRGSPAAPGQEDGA

[2] = molecular target: T2, Mus musculus AXL (p33-HAMm-AXL) (human (Homo sapiens) AXL with mouse …, UniProt Q00993 1-888 (mouse entry)); assay: flow cytometry, transfected HEK293F cells
T2 construct: also called hsAXL-mmECD
T2 chain: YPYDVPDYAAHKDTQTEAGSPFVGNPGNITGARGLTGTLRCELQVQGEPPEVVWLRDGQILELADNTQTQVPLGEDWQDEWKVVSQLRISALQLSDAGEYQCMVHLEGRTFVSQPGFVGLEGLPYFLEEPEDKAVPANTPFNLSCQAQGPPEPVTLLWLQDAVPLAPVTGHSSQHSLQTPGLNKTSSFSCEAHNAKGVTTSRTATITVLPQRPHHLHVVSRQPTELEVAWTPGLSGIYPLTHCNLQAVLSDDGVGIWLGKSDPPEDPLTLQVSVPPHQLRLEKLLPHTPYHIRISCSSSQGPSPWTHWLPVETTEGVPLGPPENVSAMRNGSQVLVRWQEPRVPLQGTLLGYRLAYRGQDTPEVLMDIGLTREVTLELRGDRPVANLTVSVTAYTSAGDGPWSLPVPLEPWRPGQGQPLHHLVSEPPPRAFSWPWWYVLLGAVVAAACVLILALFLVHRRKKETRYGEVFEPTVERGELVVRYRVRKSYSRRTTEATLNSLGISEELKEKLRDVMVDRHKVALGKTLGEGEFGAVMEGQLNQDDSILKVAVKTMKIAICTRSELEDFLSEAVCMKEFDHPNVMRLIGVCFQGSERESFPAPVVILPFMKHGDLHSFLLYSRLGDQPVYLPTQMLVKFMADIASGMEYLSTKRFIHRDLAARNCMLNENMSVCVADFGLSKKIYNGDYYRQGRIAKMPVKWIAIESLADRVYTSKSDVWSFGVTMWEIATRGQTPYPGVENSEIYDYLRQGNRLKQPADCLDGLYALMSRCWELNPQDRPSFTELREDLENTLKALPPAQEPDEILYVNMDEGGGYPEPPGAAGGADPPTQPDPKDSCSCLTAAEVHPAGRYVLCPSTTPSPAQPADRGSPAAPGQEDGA

Binder | binding result [1] | binding result [2]
B1 | no binding (tested: 1 µg/mL) | 
B2 |  | no binding (tested: 1 µg/mL)
B3 |  | no binding (tested: 1 µg/mL)
B4 |  | no binding (tested: 1 µg/mL)
